B1: Recombinant His-Bem1p (natural protein, yeast, UniProt P29366 1-551, looked up)
chain: MLKNFKLSKRDSNGSKGRITSADISTPSHDNGSVIKHIKTVPVRYLSSSSTPVKSQRDSSPKNRHNSKDITSPEKVIKAKYSYQAQTSKELSFMEGEFFYVSGDEKDWYKASNPSTGKEGVVPKTYFEVFDRTKPSSVNGSNSSSRKVTNDSLNMGSLYAIVLYDFKAEKADELTTYVGENLFICAHHNCEWFIAKPIGRLGGPGLVPVGFVSIIDIATGYATGNDVIEDIKSVNLPTVQEWKSNIARYKASNISLGSVEQQQQQSITKPQNKSAKLVDGELLVKASVESFGLEDEKYWFLVCCELSNGKTRQLKRYYQDFYDLQVQLLDAFPAEAGKLRDAGGQWSKRIMPYIPGPVPYVTNSITKKRKEDLNIYVADLVNLPDYISRSEMVHSLFVVLNNGFDREFERDENQNNIKTLQENDTATFATASQTSNFASTNQDNTLTGEDLKLNKKLSDLSLSGSKQAPAQSTSGLKTTKIKFYYKDDIFALMLKGDTTYKELRSKIAPRIDTDNFKLQTKLFDGSGEEIKTDSQVSNIIQAKLKISVHDI
B2: Recombinant His-GIV-CT (C terminus of GIV/Girdin), wild type (domain or fragment)
chain: SETLESRHHKIKTGSPGSEVVTLQQFLEESNKLTSVQIKSSSQENLLDEVMKSLSVSSDFLGKDKPVSCGLARSVSGKTPGDFYDRRTTKPEFLRPGPRKTEDTYFISSAGKPTPGTQGKIKLVKESSLSRQSKDSNPYATLPRASSVISTAEGTTRRTSIHDFLTKDSRLPISVDSPPAAADSNTTAASNVDKVQESRNSKSRSREQQSS

What was measured:
GST-Exo70p (yeast Exo70) = GST-Exo70p (yeast Exo70) (yeast, UniProt P19658 1-623); assay: pull-down
GST-Exo70p (yeast Exo70), sequence (P19658 whole entry): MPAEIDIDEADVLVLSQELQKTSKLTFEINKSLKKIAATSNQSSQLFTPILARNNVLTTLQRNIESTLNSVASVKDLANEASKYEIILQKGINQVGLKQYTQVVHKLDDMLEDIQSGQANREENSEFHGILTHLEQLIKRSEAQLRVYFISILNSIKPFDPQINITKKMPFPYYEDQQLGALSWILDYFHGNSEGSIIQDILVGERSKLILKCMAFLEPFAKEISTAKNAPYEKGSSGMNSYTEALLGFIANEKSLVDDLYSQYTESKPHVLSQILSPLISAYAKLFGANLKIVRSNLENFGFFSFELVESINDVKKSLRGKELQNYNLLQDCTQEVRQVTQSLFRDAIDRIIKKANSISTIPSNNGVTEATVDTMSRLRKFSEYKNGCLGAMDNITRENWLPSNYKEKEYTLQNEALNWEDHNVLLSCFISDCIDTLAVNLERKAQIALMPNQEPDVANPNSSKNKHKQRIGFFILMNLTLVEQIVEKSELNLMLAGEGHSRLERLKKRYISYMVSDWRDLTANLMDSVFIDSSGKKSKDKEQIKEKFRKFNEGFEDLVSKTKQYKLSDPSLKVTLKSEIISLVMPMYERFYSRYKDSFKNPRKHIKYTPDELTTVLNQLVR

GST-hExo70 (human Exo70) = GST-hExo70 (human Exo70) (human, UniProt Q9UPT5 1-735); assay: pull-down
GST-hExo70 (human Exo70), sequence (Q9UPT5 whole entry): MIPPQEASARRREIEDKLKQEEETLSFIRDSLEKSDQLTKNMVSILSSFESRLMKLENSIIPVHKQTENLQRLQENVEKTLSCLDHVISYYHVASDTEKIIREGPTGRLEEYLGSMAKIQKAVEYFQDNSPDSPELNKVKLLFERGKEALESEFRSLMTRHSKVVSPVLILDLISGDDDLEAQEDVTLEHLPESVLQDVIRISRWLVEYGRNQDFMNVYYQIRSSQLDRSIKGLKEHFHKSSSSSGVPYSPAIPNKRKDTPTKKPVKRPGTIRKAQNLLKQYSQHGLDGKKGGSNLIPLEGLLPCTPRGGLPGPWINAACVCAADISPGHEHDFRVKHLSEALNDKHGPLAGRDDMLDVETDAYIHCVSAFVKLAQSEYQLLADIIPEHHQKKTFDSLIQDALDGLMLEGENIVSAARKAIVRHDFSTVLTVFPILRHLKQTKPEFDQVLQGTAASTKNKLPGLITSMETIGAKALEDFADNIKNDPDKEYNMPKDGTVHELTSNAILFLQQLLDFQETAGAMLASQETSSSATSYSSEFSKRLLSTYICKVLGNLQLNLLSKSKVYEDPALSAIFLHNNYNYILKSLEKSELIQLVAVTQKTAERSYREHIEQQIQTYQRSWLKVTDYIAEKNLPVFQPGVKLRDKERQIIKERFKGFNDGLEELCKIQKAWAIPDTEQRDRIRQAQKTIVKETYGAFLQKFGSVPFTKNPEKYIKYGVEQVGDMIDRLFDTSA

Row | Binder | fold binding against human Exo70 (GST-Exo70p (yeast Exo70)) [fold] | fold binding against yeast Exo70p (GST-hExo70 (human Exo70)) [fold]
1 | B1 | 2 | –
2 | B2 | – | 4
